“And” between values parts separate entries of the source, which are not always exact repeats. Identical values can stand only once.
Target: native Ag GA733-2 on colorectal carcinoma cell line SW948 (human) (UniProt P16422)
Assay: cell ELISA on fixed SW948 cells, antibody at 0.93 ug/ml

Chain of UniProt P16422 (P16422 24-314): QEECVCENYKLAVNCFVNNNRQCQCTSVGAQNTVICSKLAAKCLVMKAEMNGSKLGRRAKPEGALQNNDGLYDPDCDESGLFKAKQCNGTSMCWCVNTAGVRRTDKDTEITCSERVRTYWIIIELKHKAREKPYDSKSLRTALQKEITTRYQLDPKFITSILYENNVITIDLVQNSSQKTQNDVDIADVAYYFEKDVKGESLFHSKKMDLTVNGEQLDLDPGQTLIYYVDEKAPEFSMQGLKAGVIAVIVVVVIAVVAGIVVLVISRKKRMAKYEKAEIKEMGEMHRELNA

absorbance (absorbance (OD)): 0.933 and 0.896
Substance: MAb CO17-1A purified from the hybridoma supernatant (antibody)

Source: patent publication US20050138692A1
